Data as given in patent US20260021140A1 (SCG CELL THERAPY PTE, published 2026).
Substitutions are numbered along the chain they refer to.

Columns and labels:
[1] = molecular target: S20 epitope peptide presented by HLA-A*02:01 on HepG2 cells (Hepatitis B virus, genotypes A and D; …); assay: cell-based or functional assay
[2] = molecular target: T1, HBV surface antigen (HBsAg), S20-28, genotypes B and C peptide on HLA-A*02:01 (human); assay: cytokine release
T1 peptide: FLLTKILTI

B1: C01 TCR (HBV S20 TCR, modified, expressed on C01 TCR-T cells) (TCR, V domains shown)
V domain 1: SQQGEEDPQALSIQEGENATMNCSYKTSINNLQWYRQNSGRGLVHLILIRSNEREKHSGRLRVTLDTSKKSSSLLITASRAADTASYFCATDAYGQNFVFGPGTRLSVLP
V domain 2: GVIQSPRHEVTEMGQEVTLRCKPISGHDYLFWYRQTMMRGLELLIYFNNNVPIDDSGMPEDRFSAKMPNASFSTLKIQPSEPRDSAVYFCASGSNTEAFFGQGTRLTVVE
For B1, the “killing ratio on HepG2-LMS-LG cells (RTCA, 48 h, E:T 2:1, 1:2, 1:8)” value [1] was > 60%.

B2: A01 TCR (TCR, V domains shown)
Valpha: QQGEEDPQALSIQEGENATMNCSYKTSINNLQWYRQNSGRGLVHLILIRSNEREKHSGRLRVTLDTSKKSSSLLITASRAADTASYFCATDERDDMRFGAGTRLTVKP
Vbeta: GVIQSPRHEVTEMGQEVTLRCKPISGHDYLFWYRQTMMRGLELLIYFNNNVPIDDSGMPEDRFSAKMPNASFSTLKIQPSEPRDSAVYFCASSLNTEAFFGQGTRLTVV
B2: recognises [2].

B3: C01 TCR (TCR, V domains shown)
Valpha: QQGEEDPQALSIQEGENATMNCSYKTSINNLQWYRQNSGRGLVHLILIRSNEREKHSGRLRVTLDTSKKSSSLLITASRAADTASYFCATDAYGQNFVFGPGTRLSVLP
Vbeta: B2 Vbeta with S93G, L94S
B3: recognises [2].

B4: B01 TCR (HBV S20 TCR, modified, expressed on B01 TCR-T cells) (TCR, V domains shown)
V domain 1: SQELEQSPQSLIVQEGKNLTINCTSSKTLYGLYWYKQKYGEGLIFLMMLQKGGEEKSHEKITAKLDEKKQQSSLHITASQPSHAGIYLCGADTSTDKLIFGTGTRLQVFP
V domain 2: KAGVTQTPRYLIKTRGQQVTLSCSPISGHRSVSWYQQTPGQGLQFLFEYFSETQRNKGNFPGRFSGRQFSNSRSEMNVSTLELGDSALYLCASSHGGAYEQYFGPGTRLTVTE
For B4, the “killing ratio on HepG2-LMS-LG cells (RTCA, 48 h, E:T 2:1, 1:2, 1:8)” value [1] was > 60%.

B5: B01 TCR (TCR, V domains shown)
Valpha: QELEQSPQSLIVQEGKNLTINCTSSKTLYGLYWYKQKYGEGLIFLMMLQKGGEEKSHEKITAKLDEKKQQSSLHITASQPSHAGIYLCGADTSTDKLIFGTGTRLQVFP
Vbeta: GVTQTPRYLIKTRGQQVTLSCSPISGHRSVSWYQQTPGQGLQFLFEYFSETQRNKGNFPGRFSGRQFSNSRSEMNVSTLELGDSALYLCASSHGGAYEQYFGPGTRLTVT
B5: recognises [2].
